From patent US20220002407A1 come the findings set out here.

For test [1], the target named is CD3 on human T cells (expanded CIK effector cells) (human) (UniProt P07766). As to the kind of experiment: flow cytometry on expanded CD3-positive human T cells (CIK).
The target in test [2] is CD19 on CD19-positive human tumor cells (Raji, Raji-Luc, NALM6, Reh) (human) (UniProt P15391). As to the kind of experiment: flow cytometry on CD19-positive Raji cells, AF647 goat anti-human IgG detection. A general note: In flow cytometry, cells or beads pass a laser one at a time.
Test [3] has the same target. In words: cell-based or functional assay.
Test [4] has as its target CD3 on the membrane of CIK cells (T cells) of a cynomolgus monkey (cynomolgus monkey) (UniProt Q95LI5). In words: flow cytometry on cynomolgus monkey CIK (T) cells.

Chain of CD19 on CD19-positive human tumor cells (Raji, Raji-Luc, NALM6, Reh) (human) (P15391 20-556): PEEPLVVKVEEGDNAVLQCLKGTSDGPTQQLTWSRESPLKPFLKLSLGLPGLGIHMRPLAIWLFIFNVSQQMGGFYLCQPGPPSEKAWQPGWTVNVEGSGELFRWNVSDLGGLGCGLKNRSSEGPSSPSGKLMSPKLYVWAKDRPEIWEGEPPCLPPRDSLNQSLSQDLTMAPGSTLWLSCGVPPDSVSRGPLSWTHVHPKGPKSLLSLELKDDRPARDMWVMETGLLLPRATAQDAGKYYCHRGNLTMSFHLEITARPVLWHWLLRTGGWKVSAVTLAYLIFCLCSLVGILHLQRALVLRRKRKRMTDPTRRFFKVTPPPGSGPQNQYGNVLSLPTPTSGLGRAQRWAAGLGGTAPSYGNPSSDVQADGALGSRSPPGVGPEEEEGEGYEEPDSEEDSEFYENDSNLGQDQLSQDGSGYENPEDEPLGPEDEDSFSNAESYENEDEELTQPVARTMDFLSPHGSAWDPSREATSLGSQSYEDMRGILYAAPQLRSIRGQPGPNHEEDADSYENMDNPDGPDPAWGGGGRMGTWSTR
Chain of CD3 on human T cells (expanded CIK effector cells) (human) (P07766 23-207, chain 1 of 3): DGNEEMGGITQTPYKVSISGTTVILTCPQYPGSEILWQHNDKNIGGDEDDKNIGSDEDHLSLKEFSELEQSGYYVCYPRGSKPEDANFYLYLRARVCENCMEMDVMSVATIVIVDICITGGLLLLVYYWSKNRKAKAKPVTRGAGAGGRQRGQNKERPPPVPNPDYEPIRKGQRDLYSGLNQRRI
Chain of CD3 on human T cells (expanded CIK effector cells) (human) (P04234 22-171, chain 2 of 3, further chain): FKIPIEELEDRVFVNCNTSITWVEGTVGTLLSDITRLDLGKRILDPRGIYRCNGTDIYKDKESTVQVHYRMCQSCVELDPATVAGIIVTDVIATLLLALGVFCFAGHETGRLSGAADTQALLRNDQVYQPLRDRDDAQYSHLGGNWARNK
Chain of CD3 on human T cells (expanded CIK effector cells) (human) (P09693 23-182, chain 3 of 3, further chain): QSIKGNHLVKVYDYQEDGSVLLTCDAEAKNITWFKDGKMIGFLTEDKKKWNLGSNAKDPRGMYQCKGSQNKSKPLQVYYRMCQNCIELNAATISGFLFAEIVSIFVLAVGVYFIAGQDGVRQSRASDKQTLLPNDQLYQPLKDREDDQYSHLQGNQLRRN
Chain of CD3 on the membrane of CIK cells (T cells) of a cynomolgus monkey (cynomolgus monkey) (Q95LI5 22-198, chain 1 of 3): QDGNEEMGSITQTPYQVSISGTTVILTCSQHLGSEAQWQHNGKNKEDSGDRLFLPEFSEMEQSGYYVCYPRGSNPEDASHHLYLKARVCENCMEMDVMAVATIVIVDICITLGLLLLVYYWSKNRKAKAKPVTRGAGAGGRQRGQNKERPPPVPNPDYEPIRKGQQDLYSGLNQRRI
Chain of CD3 on the membrane of CIK cells (T cells) of a cynomolgus monkey (cynomolgus monkey) (Q95LI8 22-171, chain 2 of 3, further chain): as the sequence (P04234 22-171, chain 2 of 3, further chain) above, with I5V, N15K, I20V, S32T, D33N, I34N, T64A, S74N, V83L, H141R counted along it
Chain of CD3 on the membrane of CIK cells (T cells) of a cynomolgus monkey (cynomolgus monkey) (Q95LI7 23-181, chain 3 of 3, further chain): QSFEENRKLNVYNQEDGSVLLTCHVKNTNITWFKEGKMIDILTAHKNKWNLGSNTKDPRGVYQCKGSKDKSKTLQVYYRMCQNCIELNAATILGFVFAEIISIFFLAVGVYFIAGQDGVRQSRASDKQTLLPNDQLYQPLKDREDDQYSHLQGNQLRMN

B1: bispecific antibody AB23P7 (anti-CD19×CD3) (bispecific antibody)
chain: QVQLQESGPGLVKPSQTLSLTCTVSGGSISTSGMGVGWIRQHPGKGLEWIGHIWWDDDKRYNPALKSRVTISVDTSKNQFSLKLSSVTAADTAVYYCARMELWSYYFDYWGQGTLVTVSSGGGGSGGGGSGGGGSEIVLTQSPATLSLSPGERATLSCSASSSVSYMHWYQQKPGQAPRLLIYDTSKLASGIPARFSGSGSGTDFTLTISSLEPEDVAVYYCFQGSVYPFTFGQGTKLEIKGGGGGGSGGGGSGGGGSSSSSKAPPPSEVQLLESGGGLVQPGGSLKLSCAASGFTFNTYAMNWVRQAPGKGLEWVARIRSKYNNYATYYADSVKDRFTISRDDSKNTAYLQMNNLKTEDTAVYYCVRHGNFGNSYVSWFAYWGQGTLVTVSSGGGGSGGGGSGGGGSELVVTQEPSLTVSPGGTVTLTCRSSTGAVTTSNYANWVQQKPGQAPRGLIGGTNKRAPGTPARFSGSLLGGKAALTLSGVQPEDEAEYYCALWYSNLWVFGGGTKLTVLDKTHTCPPCPAPEAAGGPSVFLFPPKPKDQLMISRTPEVTCVVVDVSHEDPEVKFNWYVDGVEVHNAKTKPREEQYASTYRVVSVLTVLHQDWLNGKEYKCKVSNKALPASIEKTISKAKGQPREPQVYTLPPSRDELTKNQVSLTCLVKGFYPSDIAVEWESNGQPENNYKTTPPVLDSDGSFFLYSKLTVDKSRWQQGNVFSCSVLHEALHNHYTQKSLSLSPG
modifications: Homodimer: two identical copies of this chain, joined by covalent (hinge disulfide) bonds; one copy is given.
In turn, B1 showed an EC50 in test [1] of 15700 pM. The molecule further showed an EC50 in test [2] of 1390 pM. Further, in test [3], the EC50 of activation of NFAT-RE luciferase reporter Jurkat T cells in the presence of Raji target cells was 1080 pM; the EC50 to mediate CIK to kill different tumor cells (Reh) is 1.71 pM; the EC50 to mediate CIK to kill tumor cells (Raji-LUC) stood at 0.699 pM; the EC50 to mediate CIK to kill tumor cells (Raji-LUC, second row without label) was found to be 0.202 pM. Moreover, in test [3], the EC50 to mediate PBMCs to kill tumor cells (Raji-LUC) amounted to 1.23 pM and the EC50 to mediate PBMCs to kill tumor cells (Raji-LUC, second row without label) is 1.25 pM. Moreover, the EC50 in test [4] stood at 5500 pM.

B2: bispecific antibody AB23P9 (anti-CD19×CD3) (bispecific antibody)
chain: QVQLQESGPGLVKPTQTLSLTCTVSGGSISTSGMGVGWIRQHPGKGLEWIGHIWWDDDKRYNPALKSRVTISVDTSKNQVFLKLSSVTAADTAVYYCARMELWSYYFDYWGQGTTVTVSSGGGGSGGGGSGGGGSEIVLTQSPATLSLSPGERATITCRASQSVSYMHWYQQKPGQAPRLLIYDASNRASGVPSRFSGSGSGTDFTLTISSLEPEDAATYYCFQGSVYPFTFGQGTKLEIKGGGGGGSGGGGSGGGGSSSSSKAPPPSEVQLLESGGGLVQPGGSLKLSCAASGFTFNTYAMNWVRQAPGKGLEWVARIRSKYNNYATYYADSVKDRFTISRDDSKNTAYLQMNNLKTEDTAVYYCVRHGNFGNSYVSWFAYWGQGTLVTVSSGGGGSGGGGSGGGGSELVVTQEPSLTVSPGGTVTLTCRSSTGAVTTSNYANWVQQKPGQAPRGLIGGTNKRAPGTPARFSGSLLGGKAALTLSGVQPEDEAEYYCALWYSNLWVFGGGTKLTVLDKTHTCPPCPAPEAAGGPSVFLFPPKPKDQLMISRTPEVTCVVVDVSHEDPEVKFNWYVDGVEVHNAKTKPREEQYASTYRVVSVLTVLHQDWLNGKEYKCKVSNKALPASIEKTISKAKGQPREPQVYTLPPSRDELTKNQVSLTCLVKGFYPSDIAVEWESNGQPENNYKTTPPVLDSDGSFFLYSKLTVDKSRWQQGNVFSCSVLHEALHNHYTQKSLSLSPG
modifications: Homodimer: two identical copies of this chain, joined by covalent (hinge disulfide) bonds; one copy is given.
The molecule B2 returned an EC50 in test [1] of 49500 pM. The molecule also gave an EC50 in test [2] of 2600 pM. For the same molecule, in test [3], the EC50 of activation of NFAT-RE luciferase reporter Jurkat T cells in the presence of Raji target cells turned out to be 853 pM, the EC50 to mediate CIK to kill tumor cells (Raji-LUC) was found to be 0.148 pM and the EC50 to mediate PBMCs to kill tumor cells (Raji-LUC) stood at 1.01 pM.

B3: bispecific antibody AB23P8 (anti-CD19×CD3) (bispecific antibody)
chain: QVTLRESGPALVKPTQTLTLTCTFSGFSLSTSGMGVGWIRQPPGKALEWLAHIWWDDDKRYNPALKSRLTISKDTSKNQVFLTMTNMDPVDTATYYCARMELWSYYFDYWGQGTTVTVSSGGGGSGGGGSGGGGSENVLTQSPATLSVTPGEKATITCRASQSVSYMHWYQQKPGQAPRLLIYDASNRASGVPSRFSGSGSGTDHTLTISSLEAEDAATYYCFQGSVYPFTFGQGTKLEIKGGGGGGSGGGGSGGGGSSSSSKAPPPSEVQLLESGGGLVQPGGSLKLSCAASGFTFNTYAMNWVRQAPGKGLEWVARIRSKYNNYATYYADSVKDRFTISRDDSKNTAYLQMNNLKTEDTAVYYCVRHGNFGNSYVSWFAYWGQGTLVTVSSGGGGSGGGGSGGGGSELVVTQEPSLTVSPGGTVTLTCRSSTGAVTTSNYANWVQQKPGQAPRGLIGGTNKRAPGTPARFSGSLLGGKAALTLSGVQPEDEAEYYCALWYSNLWVFGGGTKLTVLDKTHTCPPCPAPEAAGGPSVFLFPPKPKDQLMISRTPEVTCVVVDVSHEDPEVKFNWYVDGVEVHNAKTKPREEQYASTYRVVSVLTVLHQDWLNGKEYKCKVSNKALPASIEKTISKAKGQPREPQVYTLPPSRDELTKNQVSLTCLVKGFYPSDIAVEWESNGQPENNYKTTPPVLDSDGSFFLYSKLTVDKSRWQQGNVFSCSVLHEALHNHYTQKSLSLSPG
modifications: Homodimer: two identical copies of this chain, joined by covalent (hinge disulfide) bonds; one copy is given.
Consider B3, for which the EC50 in test [1] came out at 16700 pM. The EC50 in test [2] was determined as 1920 pM. In test [3], the EC50 of activation of NFAT-RE luciferase reporter Jurkat T cells in the presence of Raji target cells turned out to be 1120 pM, the EC50 to mediate CIK to kill tumor cells (Raji-LUC) was found to be 0.586 pM and the EC50 to mediate PBMCs to kill tumor cells (Raji-LUC) is 1.02 pM.

B4: bispecific antibody AB23P10 (anti-CD19×CD3) (bispecific antibody)
chain: QVQLQESGPALVKPTQTLTLTCTFSGFSLSTSGMGVGWIRQPPGKALEWLAHIWWDDDKRYNPALKSRLTISKDTSKNQVFLTMTNMDPVDTATYYCARMELWSYYFDYWGQGTLVTVSSGGGGSGGGGSGGGGSENVLTQSPATLSVTPGEKATLSCSASSSVSYMHWYQQKPGQAPRLLIYDTSKLASGIPARFSGSGSGTDHTLTISSLEAEDVAVYYCFQGSVYPFTFGQGTKLEIKGGGGGGSGGGGSGGGGSSSSSKAPPPSEVQLLESGGGLVQPGGSLKLSCAASGFTFNTYAMNWVRQAPGKGLEWVARIRSKYNNYATYYADSVKDRFTISRDDSKNTAYLQMNNLKTEDTAVYYCVRHGNFGNSYVSWFAYWGQGTLVTVSSGGGGSGGGGSGGGGSELVVTQEPSLTVSPGGTVTLTCRSSTGAVTTSNYANWVQQKPGQAPRGLIGGTNKRAPGTPARFSGSLLGGKAALTLSGVQPEDEAEYYCALWYSNLWVFGGGTKLTVLDKTHTCPPCPAPEAAGGPSVFLFPPKPKDQLMISRTPEVTCVVVDVSHEDPEVKFNWYVDGVEVHNAKTKPREEQYASTYRVVSVLTVLHQDWLNGKEYKCKVSNKALPASIEKTISKAKGQPREPQVYTLPPSRDELTKNQVSLTCLVKGFYPSDIAVEWESNGQPENNYKTTPPVLDSDGSFFLYSKLTVDKSRWQQGNVFSCSVLHEALHNHYTQKSLSLSPG
modifications: Homodimer: two identical copies of this chain, joined by covalent (hinge disulfide) bonds; one copy is given.
In turn, B4 showed a half-maximal effective concentration (EC50) in test [1] of 32400 pM. In addition, the EC50 in test [2] was found to be 2680 pM. In addition, in test [3], the EC50 of activation of NFAT-RE luciferase reporter Jurkat T cells in the presence of Raji target cells was found to be 709 pM, the EC50 to mediate CIK to kill different tumor cells (NALM6) amounted to 4.4 pM, the EC50 to mediate CIK to kill different tumor cells (Reh) came out at 1.64 pM and the EC50 to mediate CIK to kill tumor cells (Raji-LUC) was determined as 0.128 pM. Further, in test [3], the EC50 to mediate CIK to kill tumor cells (Raji-LUC, second row without label) worked out at 0.483 pM; the EC50 to mediate PBMCs to kill tumor cells (Raji-LUC) was 0.946 pM; the EC50 to mediate PBMCs to kill tumor cells (Raji-LUC, second row without label) came to 1.25 pM; the EC50 to mediate PBMCs to kill tumor cells (Raji-LUC, third row without label) is 4.18 pM. The molecule also had an EC50 in test [4] of 5500 pM.

As a reminder, the EC50 is the concentration needed to bring the measured effect to its halfway point.
